Experimental data: patent publication US20140073563A1

Biological target: human FGFR1c together with human beta-Klotho (KLB) (human), P11362
Test: cell-based or functional assay

Chain of human FGFR1c together with human beta-Klotho (KLB) (human), P11362 (P11362 22-822, chain 1 of 2): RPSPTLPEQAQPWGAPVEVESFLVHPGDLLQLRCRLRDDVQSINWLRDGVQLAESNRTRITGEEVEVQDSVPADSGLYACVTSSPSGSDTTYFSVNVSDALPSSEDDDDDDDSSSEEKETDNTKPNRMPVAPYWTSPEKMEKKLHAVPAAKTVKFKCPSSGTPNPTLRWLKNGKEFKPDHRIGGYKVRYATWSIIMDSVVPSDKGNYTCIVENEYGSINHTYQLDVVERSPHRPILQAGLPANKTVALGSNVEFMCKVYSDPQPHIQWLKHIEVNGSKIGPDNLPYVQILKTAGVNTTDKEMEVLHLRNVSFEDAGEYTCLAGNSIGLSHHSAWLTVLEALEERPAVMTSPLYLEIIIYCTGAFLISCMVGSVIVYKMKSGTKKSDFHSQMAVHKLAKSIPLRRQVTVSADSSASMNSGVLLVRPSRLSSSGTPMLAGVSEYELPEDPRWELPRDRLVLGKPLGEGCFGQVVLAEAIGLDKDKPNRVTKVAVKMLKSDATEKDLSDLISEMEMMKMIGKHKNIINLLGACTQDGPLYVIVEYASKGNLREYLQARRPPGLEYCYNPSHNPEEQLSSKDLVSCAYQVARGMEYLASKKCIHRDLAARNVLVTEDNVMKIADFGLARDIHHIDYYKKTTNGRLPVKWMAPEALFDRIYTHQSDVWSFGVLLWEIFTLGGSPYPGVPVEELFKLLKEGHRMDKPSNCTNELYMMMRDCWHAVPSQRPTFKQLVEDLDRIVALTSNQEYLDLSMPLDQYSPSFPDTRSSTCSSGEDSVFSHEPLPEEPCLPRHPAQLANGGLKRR
Chain of human FGFR1c together with human beta-Klotho (KLB) (human), P11362 (Q86Z14 whole entry, chain 2 of 2, further chain): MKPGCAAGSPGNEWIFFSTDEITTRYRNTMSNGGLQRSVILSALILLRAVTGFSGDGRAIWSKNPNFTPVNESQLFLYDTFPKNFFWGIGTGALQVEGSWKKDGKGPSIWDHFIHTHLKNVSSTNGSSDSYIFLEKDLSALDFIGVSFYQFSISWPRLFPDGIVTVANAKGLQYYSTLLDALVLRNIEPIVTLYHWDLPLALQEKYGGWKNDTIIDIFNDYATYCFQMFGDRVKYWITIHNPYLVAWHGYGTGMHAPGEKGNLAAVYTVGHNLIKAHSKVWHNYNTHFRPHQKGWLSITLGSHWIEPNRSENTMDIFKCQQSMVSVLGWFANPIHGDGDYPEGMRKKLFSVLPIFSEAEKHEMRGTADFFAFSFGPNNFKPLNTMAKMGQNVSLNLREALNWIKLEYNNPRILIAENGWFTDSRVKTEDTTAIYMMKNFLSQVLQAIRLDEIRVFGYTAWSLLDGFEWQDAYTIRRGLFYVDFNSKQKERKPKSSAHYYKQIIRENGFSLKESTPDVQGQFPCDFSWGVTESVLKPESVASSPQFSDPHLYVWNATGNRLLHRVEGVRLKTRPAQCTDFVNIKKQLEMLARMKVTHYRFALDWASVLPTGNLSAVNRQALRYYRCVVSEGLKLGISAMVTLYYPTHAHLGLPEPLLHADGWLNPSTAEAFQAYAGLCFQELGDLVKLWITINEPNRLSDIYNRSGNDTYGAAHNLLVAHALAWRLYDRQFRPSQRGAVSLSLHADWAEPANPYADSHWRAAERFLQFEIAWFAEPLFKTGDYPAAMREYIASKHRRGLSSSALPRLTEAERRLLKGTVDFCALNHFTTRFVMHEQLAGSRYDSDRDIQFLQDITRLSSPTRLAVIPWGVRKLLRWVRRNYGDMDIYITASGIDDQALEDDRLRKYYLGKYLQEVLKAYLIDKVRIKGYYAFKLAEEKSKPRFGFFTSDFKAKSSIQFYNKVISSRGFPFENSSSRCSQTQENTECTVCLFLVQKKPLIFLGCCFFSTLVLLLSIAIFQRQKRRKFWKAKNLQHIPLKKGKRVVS

pERK ICW EC50: 0.135 nmol/L
pFGFR ICW EC50: 4.3 nmol/L
B1: FGF21 wild type, Q9NSA1 29-209 (ligand)
chain: HPIPDSSPLLQPGGQVRQRYLYTDDAQQTEAHLEIREDGTVGGAADQSPESLLQLKALKPGVIQILGVKTSRFLCQRPDGALYGSLHFDPEACSFRELLLEDGYNVYQSEAHGLPLHLPGNKSPHRDPAPRGPARFLPLPGLPPAPPEPPGILAPQPPDVGSSDPLSMVGPSQGRSPSYAS
